{"source": "patent US20050153872A1", "about": "“Methods and compositions for the treatment of infection” (priority 2004, published 2005)", "molecules": {"B1": {"name": "Ph-SA1: Colicin Ia linked to the AgrDI pheromone of S. aureus (protein)", "chain": "SDPVRITNPGAESLGYDSDGHEIMAVDIYVNPPRVDVFHGTPPAWSSFGNKTIWGGNEWVDDSPTRSDIEKRDKEITAYKNTLSAQQKENENKRTEAGKRLSAAIAAREKDENTLKTLRAGNADAADITRQEFRLLQAELREYGFRTEIAGYDALRLHTESRMLFADADSLRISPREARSLIEQAEKRQKDAQNADKKAADMLAEYERRKGILDTRLSELEKNGGAALAVLDAQQARLLGQQTRNDRAISEARNKLSSVTESLNTARNALTRAEQQLTQQKNTPDGKTIVSPEKFPGRSSTNHSIVVSGDPRFAGTIKITTSAVIDNRANLNYLLSHSGLDYKRNILNDRNPVVTEDVEGDKKIYNAEVAEWDKLRQRLLDARNKITSAESAVNSARNNLSARTNEQKHANDALNALLKEKENIRNQLSGINQKIAEEKRKQDELKATKDAINFTTEFLKSVSEKYGAKAEQLAREMAGQAKGKKIRNVEEALKTYEKYRADINKKINAKDRAAIAAALESVKLSDISSNLNRFSRGLGYAGKFTSLADWITEFGKAVRTENWRPLFVKTETIIAGNAATALVALVFSILTGSALGIIGYGLLMAVTGALIDESLVEKANKFWGIYSTCDFIM", "modifications": "Colicin attached to Pheromone peptide encoding Staphylococcus aureus AgrDI"}}, "key": {"[1]": {"system": "SMMC-7721 human hepatocellular carcinoma cells", "assay": "Toxicity assessment in mammalian cells", "format": "cell-based", "settings": "about 200 micrograms per ml; 48 hours incubation", "experimental": "(§1) To assess potential toxicity to mammalian cells, HL-7702 human liver cells and SMMC-7721 human hepatocellular carcinoma cells (Institute of Biochemistry & Cell Biology, Shanghai, Chinese Academy of Science) were grown in 1640 medium and treated with various fusion peptides. The concentration of antivirus and antibacterial peptides used for treating the cells was about 200 micrograms per ml. Equal amounts of stock solution (20 mM PBS, pH 7.4) was added to the control cells."}, "[2]": {"system": "HL-7702 human liver cells", "assay": "Toxicity assessment in mammalian cells", "format": "cell-based", "settings": "about 200 micrograms per ml; 48 hours incubation", "experimental": "as §1"}, "[3]": {"system": "ATCC 700802 VRE cells", "assay": "Electron micrographs of bactericidal effects of Ph-EF", "format": "cell-based, Enterococcus", "settings": "Ph-EF 10 ug/ml 0.5 and 2 hr; Ph-SA 10 ug/ml 2 hr; vancomycin 20 ug/ml 2 hr", "experimental": "Electron Microraphs of Bactericidal Effects of Ph-EF Against ATCC 700802 VRE Cells (1% Phosphotungstic Acid, 15.000×).\nBactericidal effects of ph-EF were tested and monitored by electron microscopy. FIG. 16 depicts electron micrographs of (a) untreated cells; (b) and (c) cells treated with Ph-EF (10 ug/ml) for 0.5 hr; (d) untreated cells for 2 hr; (e) cells treated by Ph-SA (10 ug/ml) for 2 hr; (f) cells treated with vancomycin (20 ug/ml) for 2 hr; (g) and (h) cells treated with Ph-EF (10 ug/ml) for 2 hrs."}, "[4]": {"system": "Staphylococcus aureus MRSA 02-18", "assay": "In vivo protection of infected mice", "parameters": "species or system Kungming mice", "settings": "mice, i.p. infection 1.7 × 10^5 cfu/ml", "outline": "(§2)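 Kunming mice (18–22 g, both sexes) were infected intraperitoneally with a lethal dose of staphylococci, enterococci or E. coli; agents were diluted in sterile water to 10, 5 and 2.5 mg/L. Deaths were counted every 24 h over 7–14 days.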"}, "[5]": {"system": "Staphylococcus aureus MRSA BAA-42", "assay": "In vivo protection of infected mice", "parameters": "species or system Kungming mice", "settings": "mice, i.p. infection 5.5 × 10^5 cfu/ml", "outline": "as §2"}, "[6]": {"system": "Enterococcus faecalis ATCC 700802", "assay": "In vivo protection of infected mice", "parameters": "species or system Kungming mice", "settings": "mice, i.p. infection 8.0 × 10^6 cfu/ml", "outline": "as §2"}, "[7]": {"system": "Aspergillus niger SWA 1011 strain", "assay": "In vitro cell growth inhibition assay", "settings": "Ph-CA 5 μg/ml; Ph-SA 5 μg/ml; amphotericin B 200 ng/ml; Fluconazole 3 μg/ml"}, "[8]": {"system": "S. aureus strain ATCC BAA-42 MRSA", "settings": "all agents 5 μg/ml"}, "[9]": {"system": "Staphylococcus epidermidis MSSE strain (21)", "assay": "In vitro antibacterial activity (MIC), clinical isolates", "format": "cell-based", "settings": "21 MSSE clinical isolates", "outline": "(§3)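 Clinical isolates collected in Sichuan and Beijing in 2002, identified with the API system, were exposed to test compound to determine MIC50, MIC90 and MIC range. S. aureus ATCC25923, 29213 and BAA-42 served as control strains.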"}, "[10]": {"system": "Acenetobactor (20)", "assay": "In vitro antibacterial activity (MIC), clinical isolates", "format": "cell-based", "settings": "20 Acenetobactor clinical isolates", "outline": "as §3"}, "[11]": {"system": "Staphylococcus aureus MSSA strain (88)", "assay": "In vitro antibacterial activity (MIC), clinical isolates", "format": "cell-based", "settings": "88 MSSA clinical isolates", "outline": "as §3"}, "[12]": {"system": "Staphylococcus aureus MRSA strain (80)", "assay": "In vitro antibacterial activity (MIC), clinical isolates", "format": "cell-based", "settings": "80 MRSA clinical isolates", "outline": "as §3"}, "[13]": {"system": "Staphylococcus epidermidis MRSE strain (25)", "assay": "In vitro antibacterial activity (MIC), clinical isolates", "format": "cell-based", "settings": "25 MRSE clinical isolates", "outline": "as §3"}, "[14]": {"system": "Enterococcus (20)", "assay": "In vitro antibacterial activity (MIC), clinical isolates", "format": "cell-based", "settings": "20 Enterococcus clinical isolates", "outline": "as §3"}, "[15]": {"system": "Staphylococcus aureus MRSA 02-18", "assay": "microbe, parasite or virus in culture", "format": "cell-based", "settings": "Staphylococcus aureus MRSA 02-18"}, "[16]": {"system": "S. epidermidis BQIOC 26069", "format": "cell-based", "settings": "all agents at 2 ug/ml", "experimental": "All agents were at 2 ug/ml."}, "[17]": {"system": "Staphylococcus aureus ATCC 29213", "assay": "In vivo protection of infected mice", "parameters": "species or system Kungming mice", "settings": "i.p. infection 3.6 × 10^5 cfu/ml", "outline": "as §2"}, "[18]": {"system": "Escherichia coli 02-1-65", "assay": "In vivo protection of infected mice", "parameters": "species or system Kungming mice", "settings": "i.p. infection 3.3 × 10^5 cfu/ml", "outline": "as §2"}, "[19]": {"system": "MRSA strain ATCC BAA-42", "assay": "Electron micrographs of bactericidal effects", "format": "cell-based, S. aureus", "settings": "Ph-SA 50 μg/ml 0.5 hrs; wild type colicin Ia 50 μg/ml 2 hrs; AgrDI 10 μg/ml 2 hrs", "from_the_text": "Electron Micrographs of Bactericidal Effects of Ph-SA1 Against ATCC BAA-42 MRSA Strain Cells (1% Phosphotungstic Acid. 25,000×)"}, "[20]": {"system": "Escherichia coli 02-1-65", "assay": "MIC against challenge strain (Table 3)", "format": "cell-based"}, "[21]": {"system": "Staphylococcus aureus MRSA BAA-42", "assay": "microbe, parasite or virus in culture", "format": "cell-based", "settings": "Staphylococcus aureus MRSA BAA-42"}, "[22]": {"system": "Enterococcus faecalis ATCC 700802", "assay": "microbe, parasite or virus in culture", "format": "cell-based", "settings": "Enterococcus faecalis, ATCC700802"}, "[23]": {"system": "Candida albicans ATCC 10231", "assay": "In vitro cell growth inhibition assay (OD595, filaments)", "settings": "Ph-CA 5 μg/ml; Ph-SA 5 μg/ml; ampicillin 50 μg/ml; amphotericin B 200 ng/ml; fluconazole 3 μg/ml"}, "[24]": {"system": "Staphylococcus aureus ATCC 29213", "assay": "MIC against challenge strain (Table 3)", "format": "cell-based"}, "[25]": {"settings": "1st Time, i.v. treatment after one hour"}, "[26]": {"settings": "2nd Time (value in parentheses), i.v. treatment"}}}
{"molecule": "B1", "values": [{"measurement": "cell morphology and cell growth (toxicity)", "setting": "[1]", "value": "not toxic to the liver cells"}, {"measurement": "cell morphology and cell growth (toxicity)", "setting": "[2]", "value": "not toxic to the liver cells"}, {"measurement": "morphological alteration in VRE cells (electron micrographs)", "setting": "[3]", "value": "no morphological alteration"}, {"measurement": "ED50", "setting": "[4]; [25]", "value": 3.84, "unit": "mg/kg"}, {"measurement": "ED50", "setting": "[4]; [26]", "value": "(4.24) mg/kg"}, {"measurement": "ED50", "setting": "[5]; [25]", "value": 4.32, "unit": "mg/kg"}, {"measurement": "ED50", "setting": "[5]; [26]", "value": "(4.23) mg/kg"}, {"measurement": "ED50", "setting": "[6]; [25]", "value": 4.23, "unit": "mg/kg"}, {"measurement": "ED50", "setting": "[6]; [26]", "value": "(3.70) mg/kg"}, {"measurement": "effect on growth of Aspergillus niger", "setting": "[7]", "value": "no effect on the growth"}, {"measurement": "inhibition of growth", "setting": "[8]", "value": "best inhibitory effects"}, {"measurement": "MIC50", "setting": "[9]", "value": 0.25, "unit": "µg/mL"}, {"measurement": "MIC90", "setting": "[9]", "value": 16, "unit": "µg/mL"}, {"measurement": "MIC Scope", "setting": "[9]", "value": "0.125˜32 mg/l"}, {"measurement": "MIC50", "setting": "[10]", "value": 32, "unit": "µg/mL"}, {"measurement": "MIC90", "setting": "[10]", "value": ">64", "unit": "µg/mL"}, {"measurement": "MIC50", "setting": "[11]", "value": 0.5, "unit": "µg/mL"}, {"measurement": "MIC90", "setting": "[11]", "value": 16, "unit": "µg/mL"}, {"measurement": "MIC50", "setting": "[12]", "value": "16> mg/l"}, {"measurement": "MIC90", "setting": "[12]", "value": 16, "unit": "µg/mL"}, {"measurement": "MIC Scope", "setting": "[12]", "value": "<0.0005˜64 mg/l"}, {"measurement": "MIC50", "setting": "[13]", "value": ">64", "unit": "µg/mL"}, {"measurement": "MIC90", "setting": "[13]", "value": ">64", "unit": "µg/mL"}, {"measurement": "MIC50", "setting": "[14]", "value": ">64", "unit": "µg/mL"}, {"measurement": "MIC90", "setting": "[14]", "value": ">64", "unit": "µg/mL"}, {"measurement": "MIC", "setting": "[15]", "value": 0.5, "unit": "µg/mL"}, {"measurement": "inhibition of cell growth", "setting": "[16]", "value": "only partially inhibited"}, {"measurement": "ED50", "setting": "[17]; [25]", "value": 10.35, "unit": "mg/kg"}, {"measurement": "ED50", "setting": "[17]; [26]", "value": "(8.87) mg/kg"}, {"measurement": "ED50", "setting": "[18]; [25]", "value": 3.14, "unit": "mg/kg"}, {"measurement": "ED50", "setting": "[18]; [26]", "value": "(3.12) mg/kg"}, {"measurement": "bactericidal effect / effect on cell growth (electron micrographs)", "setting": "[19]", "value": "killed BAA-42 MRSA cells"}, {"measurement": "MIC", "setting": "[20]", "value": 1, "unit": "µg/mL"}, {"measurement": "MIC", "setting": "[21]", "value": 0.5, "unit": "µg/mL"}, {"measurement": "MIC", "setting": "[22]", "value": 4, "unit": "µg/mL"}, {"measurement": "effect on growth of Candida albicans", "setting": "[23]", "value": "no effect on the growth"}, {"measurement": "MIC", "setting": "[24]", "value": 0.25, "unit": "µg/mL"}]}
